{
  "source": "the DeepSol protein solubility set",
  "data": [
    {"test": "soluble on expression in E. coli; label from the status in PepcDB or PDB records", "values": [
      {"sequence": "MTKVQDITRESWILNTFPEWGTWLNEEIEQEVVPADNFAMWWLGNCGIWIKTPGGANVVMDLWSNRGKATKQVKDMVRGHQMANMAGARKLQPNLRAQPMVIDPFMINELDYYLVSHYHSDHIDINTAAAIINNPKLNHVKFVGPYECGEVWKNWGVPKDRIMILKPGDSFEFKDIKITAVESFDRTCLVTLPIQGADAQDGDLAGLAITDDDMARKAVNYIFETPGGTIYHGADSHFSNYFAKHGRDYDIDVVLNNYGENPIGIQDKMTSVDLLRMAENLRAKVVIPVHYDIWSNFMASTDEILELWKMRKERLQYDFHPFIWEVGGKYTYPQDQNRIEYHHPRGFDDCFLEDSNIQFKALL", "soluble on expression in E. coli": "not soluble"},
      {"sequence": "MNKFFSADKKGGEKRRKKSKKKVRIVGMSEIGIWRQDDTMRIVHLSVWCILKRTTASLSGNEWKLSTRHANDGYIVRSPPTISGPERLQENGYVIWILL", "soluble on expression in E. coli": "not soluble"},
      {"sequence": "MNNLPLLNDLRVFMLVARRAGFAAAAEELGVSPAFVSKRVSLLEQTLNVMLLHRTTRRVTITEEGERIYEWAQRILQDVDEMMDELSDVRQVPQGTLRIISSFGFGRRVVAPALSALALQYPQLELRFDVQDRLVDLVNEGVDLDIRVGDDIAPNLIARQLAANHRVLCASPQFLARHAPPKQLSDLAALPCLVIKERDHPFGVWQLHSKEGQHAIKVTGPLSSNHGEIVHQWCLDGQGIALRSWWDVRENIASGHLVQVLPDYWQPANVWAVYVSRLATSAKIRTTVEFLRHYFQLHYPQHEPTASAVGRGD", "soluble on expression in E. coli": "not soluble"},
      {"sequence": "SPAKTPIYLKSNYSKKGKKCRLRDILSPDMISPPLGDFRHTIHIGKGGECDAFGDMSFLQGNFELLPGKGGRVRPQYGLHGEFTRANSASDASYVETPSPVLKNAISLPTIGGSQALTLPMISTTVFPMTHDNMSEPSTPPAGSEDLEILQMETLLQSISIFRSDPSPVPEEDEPMIDRMEMNEKSCMKKMHSSEKELETFLSVFVNGNGDANGNFNNGNNGDSVFQYEQDMFSIKGDWADRDSGVEEGRLCDSDFEISKSKSQSQESLPQITGSLFSLELDLGPSILDDVLNIMNKPVS", "soluble on expression in E. coli": "soluble"},
      {"sequence": "MSSDFPTDPYSTAQQKWLYQDHLVLPTLEKLLKYNLKDKKVLDIGCGNGLNSTTFLQWGARKVVGFDNSQEMIENCKNLHKSSEQSSFHHLNVTDFQLDEKFHVATAVFVLQYVHDKEELRKAIRLIWERKLRNGWFRLWMEDL", "soluble on expression in E. coli": "not soluble"},
      {"sequence": "MGSDKIHHHHHHMRTRDMLPILETLDESGIYSLEVWGGATFDACHRFLNENPWERLREIRKRVKNAKLQMLLRGQNLVGYRHYPDDIVEKFVQKTIENGLDVFRIFDALNDVRNLISSIKAAKKYNADHIQGTICYTISPVHTVEKYVEIANELAALEVDSICLKDMAGMLSPKMAYELVKALKKEVGLPINVHSHYTSGMASMALLKGVEAGAEMIDTCMSPLSSGTSHPPTESMVYALNELGYDTGVKLDILLEAREYFMKIREKYSGYLNPLSTIPDTRVLVYQIPGGMFSNLIAQLQEQNALDRLQEVLEEVPRVREDLGYPPLVTPTSQIVGVQAVINVLVGERYKVVTRETKDLVKGMYGRTPAPIKPEIVKKILGDEKPIDCRPADLLEPEFEKRKQELIEAGIENPSDEDVLLYALFPQTGLKFLKGEMVEEPFPVAGGKIEGSFEVEIDGQKYVVKVAPEK", "soluble on expression in E. coli": "not soluble"},
      {"sequence": "MGSDKIHHHHHHMTAPLKSLFLLDPSVTYLNHGAYGATPRPVFERHVQWQYELEREPVDFLSRRFAERMAQARAILAEYVDTERDNLVYVSNGTTGVNIVARSLPLGPGDELLTTDHEHGGIERLWRFTAQKRGFEIVRHKVSLPVTTHARFVEDFWRDVTPRTRAILISQLTSPTALVFPVAAICARARARGILTIVDGSHVPGQLPLSLREMDPDFYVGILHKWVCAPKGSAFLYARPDVQPLVEPLVVSWGWEPKNPGPSKFVEYHEWQGSRDISAFLSVPSAIAFQREHDWDGVRKRCIALASDAQREVAALTREPLYHPPGAHEWHGQMVCAQLPPQTDDIALLARLRNECGIDVSVDRFGGRPRIRVSIQGYNGPDDVDRLLGSLKQLLRL", "soluble on expression in E. coli": "not soluble"},
      {"sequence": "VSKDRLYFRQLLSGRDFAVGDMFATQMRNFAYLIGDRTTGDCVVVDPAYAAGDLLDALESDDMQLSGVLVTHHHPDHVGGSMMGFQLPGLAELLERASVPVHVNTHEALWVSRVTGIPVGDLITHEHGDKVSVGDIDIELLHTPGHTPGSQCFLLDGRLVAGDTLFLEGCGRTDFPGGDSDEMYRSLRQLAELPGDPTVFPGHWYSAEPSASLSEVKRSNYVYRPASLDQWRMLMGG", "soluble on expression in E. coli": "not soluble"},
      {"sequence": "SYHPLLSSSAKASADGFKPLPAIELLDRASESPTTVEIAATTTSDSCSDGARSRFQRLKVVLDLDETLVCAYETSSLPAALRNQAIEAGLKWFELECLSTDKEYDGKPKINYVTVFERPGLHEFLEQLSEFADLILFTAGLEGYARPLVDRIDTRKVLTNRLYRPSTVSTQYRDHVKDLLSTSKNMCRTVIVDNNPFSFLLQPSNGIPCIAFSAGQPNDTQLLDVILPLLKQLSEEDDVRPTLYDRFRMPEWFEKQGIPPSCWKP", "soluble on expression in E. coli": "soluble"},
      {"sequence": "MHVIDLSYFVKIYRSKNKHFSVNFLRHLHRAGDLHLSGTTRCIYEDVIMKKCLTLLIATVLSGISLTAYAAQPMSNLDSGQLRPAGTVSATGASNLSDLEDKLAEKAREQGAKGYVINSAGGNDQMLGTATIYKLEHHHHHH", "soluble on expression in E. coli": "not soluble"},
      {"sequence": "MGSDKIHHHHHHMRAHVTKKTLSEGLGLLERVIPSRSSNPLLTALKVEASEAGLTLSGTNLEIDLSYFVPAEVQAPQSFVIPAHLFAQIVRNLGGELVELELTGGELSVRAGGSDFKLQTGDLEAYPPLSFPTHTDVSLDAAELARALGSVRYAASNEAFQAVFRGIKLEHRPASARVVASDGYRVAIRDFPASGDGRNLIVPARSADELIRVLKDGEARFTYGEGLLSVTTDRVRMNLKLLDGEFPDYERVIPKDVKLQVTLPATALKEAVGRVAVLADKNANNRVEFLVSEGKLRLAAEGDYGRAQDTLDVVQGGAEPAMSLAFNARHVLDALGPIEGDAELLFSGSTSPAIFRASGGGDYMAVMVTLRV", "soluble on expression in E. coli": "not soluble"},
      {"sequence": "MGSDKIHHHHHHLEFWDGLSGGKAITPLKKEEIKHIEKQLGSRLPKSYLKKMEEQNGGDIAFNSVVVNFKNSWSDEETGLYLPLYEFMPLTIGKFVENTSVLNEWGLAGKKMIFGEGEGSYLWYFDFDENPKNPEVWCLDISDETAHLVAESFEALLPNLKKRANDDVLTHEDVFADYPSMCEIRETIKGTDEDARLEAYRMWLTRCEDLEGLIAELRQRVEHSDEEDELDSYAELLAEVLINYTSEEFMTYEEAIALFNKKEDVSDLSHVIVQLESEV", "soluble on expression in E. coli": "not soluble"},
      {"sequence": "MRDLYPLTRRRLLTAMALSPLLWQMNTAQAAAIDPRRIVALEWLPVELLLALGITPYGVADVPNYKLWVSEPPLPDSVIDVGLRTEPNLELLTEMKPSFMVWSAGYGPSPEKLARIAPGRGFDFSDGKKPLAVARRSLVELAQTLNLEAAAEKHLAQYDRFIASQKPHFIRRGGRPLLMTTLIDPRHMLVLGPNCLFQEVLDEYGIVNAWQGETNFWGSTAVSIDRLAMYKEADVICFDHGNNTDMNALMATPLWQAMPFVRAGRFHRVPAVWFYGATLSTMHFVRILNNVLGGKA", "soluble on expression in E. coli": "not soluble"},
      {"sequence": "MASHKLLVTPPKALLKPLSIPNQLLLGPGPSNLPPRIMAAGGLQMIGSMSKDMYQIMDEIKEGIQYVFQTRNPLTLVISGSGHCALEAALVNVLEPGDSFLVGANGIWGQRAVDIGERIGARVHPMTKDPGGHYTLQEVEEGLAQHKPVLLFLTHGESSTGVLQPLDGFGELCHRYKCLLLVDSVASLGGTPLYMDRQGIDILYSGSQKALNAPPGTSLISFSDKAKKKMYSRKTKPFSFYLDIKWLANFWGCDDQPRMYHHTIPVISLYSLRESLALIAEQGLENSWRQHREAAAYLHGRLQALGLQLFVKDPALRLPTVTTVAVPAGYDWRDIVSYVIDHFDIEIMGGLGPSTGKVLRIGLLGCNATRENVDRVTEALRAALQHCPKKKL", "soluble on expression in E. coli": "soluble"},
      {"sequence": "MAPAPRFSAEEQERLIICAAIKAIEESSLLDFSMSAIAKLAGLSMGSVYKFVQCKEDVLIALATRMYQERQSVFKKVLALPLTTPERIIATSLLDFSKVQMYNFDNQLESIVNTEAMMKRCSERWLTQMIACGERCQTMFQQFLQNAADSGELTSGSRDIEEINLGTWSLSVGYFQTVRLHQCWHNDLDENIDGINDEENEKNTLVLAADNAHIRTMKRLVNTYDWQQKISDDDIEKVCLHLADAALR", "soluble on expression in E. coli": "not soluble"},
      {"sequence": "LEADKCKEREEKIILVSSANEIDVRPCPLNPNEHKGTITWYKDDSKTPVSTEQASRIHQHKEKLWFVPAKVEDSGHYYCVVRNSSYCLRIKISAKFVENEPNLCYNAQAIFKQKLPVAGDGGLVCPYMEFFKNENNELPKLQWYKDCKPLLLDNIHFSGVKDRLIVMNVAEKHRGNYTCHASYTYLGKQYPITRVIEFITLEENKPTRPVIVSPANETMEVDLGSQIQLICNVTGQLSDIAYWKWNGSVIDEDDPVLGEDYYSVENPANKRRSTLITVLNISEIESRFYKHPFTCFAKNTHGIDAAYIQLIYPVTNFQK", "soluble on expression in E. coli": "soluble"},
      {"sequence": "MNTCRGQHGPRRPEAGAAGHRAHVDGGQRGPGGQQEPDWHKAGATIPRLPSPSGSPWRREQDPAPGEPPHIPAHGNRPGGQEIRPRIPGLDREARPAVPPTHSPSYRIRLAGSEPSLVQAAPGQAVQLFCPGNIPPEFQAGWQKEGRPISSNRYQLQADGSLIISRLRPEDAGIYSCGSHRPGHEPQEIQLRVTGGDMAVLPEGQPRHFPEPRNPDLGHGPPHRGTGAEAGGHRVLSPSHPRPATRLRLDRTQPGVVDASPGQRIRLTCRAEGFPVPTIEWQRDGQLVSSPRHQVQPDGSLVISRVDVEDGGYYSCVAFNGQDRDQRWVQLRVLRELTITGLPPAVTVAEGDTARLLCVVAGESVNIRWSRNGLPIQADGHRVHQSPDGTLLIHNLRPRDEGSYTCSAFRGSQAVSRSTEVKVALPAPAAQSRDLGKDCIDQPELANCALILQAQLCGNEYYSSFCCASCSRFQPNAQPVWQQG", "soluble on expression in E. coli": "soluble"},
      {"sequence": "MPIWNHNTAYRPWLVSKLKGSRSLLDVGSGDHSFADLAGRQVAHVDVVDPLINTTFEEFQPTQSYDAITFIASLHHMNAEEGLNKAVRILNPGGKLLIVGLAKNKTASDWIISGLQAFLSRPISLINREQQIYPFPTKEPSESLHEIRQLTKQLLPHRRIRRGIHFRYLLEWTKPLEHHHHHH", "soluble on expression in E. coli": "not soluble"},
      {"sequence": "MLIPSKLSRPVRLDHTVVRERLLAKLSGANNFRLALVTSPAGYGKTTLVSQWAAGKNELGWYSLDEGDNQQERFASYLIAAIQQATGGHCSTSEAMAQKRQYASLTSLFAQLFIELAQWHRPLYLVIDDYHLITNPVIHDAMRFFLRHQPENFTLVVLSRNLPQLGIANLRVRDQLLEIGSQQLAFNHQEAKQFFDRRLSSPIEAAESSRMCDDVAGWATALQLIALSARQNHTSAHHSARRLAGINASHLSDYLVDEVLDNVDVSTRHFLLKSAILRSMNDALIVRVTGEENGQMRLEEIERQGLFLQRMDDTGEWFSYHPLFGSFLRQRCQWELAAELPEIHRAAAESWMEQGFPSEAIHHALAAGDAQMLRDILLNHAWGLFNHSELALLEESLKALPWESLLENPRLVLLQAWLMQSQHRYSEVNTLLARAEQEIKGVMDGTLHAEFNALRAQVAINDGNPEEAERLAKLALDELPLAWFYSRIVATSVHGEVLHCKGDLSQSLSLMQQTEQMARHHDVWHYALWSLIQQSEIQFAQGFLQAAWETQERAFQLIKEQHLEQLPMHEFLVRIRAQLLWAWARLDEAEASARSGIAVLSTFQPQQQLQCLTLLVQCSLARGDLDNARSQLNRLENLLGNGRYHCDWISNADKVRVIYWQLTGDKKSAANWLRHTPKPAFANNHFLQGQWRNIARAQILLGEFEPAEIVLEELNENARSLRLMSDLNCNLLLLNQLYWQSGRKNDAQRVLLDALQLANRTGFISHFVIEGEAMAQQLRQLIQLNTLPEMEQHRAQRILREINQHHRHKFAHFDEGFVERLLNHPDVPELIRTSPLTQREWQVLGLIYSGYSNEQIAGELAVAATTIKTHIRNLYQKLGVAHRQDAVQHAQQLLKMMGYGV", "soluble on expression in E. coli": "not soluble"}
    ]}
  ]
}
